We go through four molecules from publication PMC5397363 (Molecular microbiology, 2017).

In the test the test system is fluorogenic substrate. Format: biochemical, Staphylococcus aureus. The note with it: 2.0 μM fluorogenic substrate; for measureable activity of mutant enzyme: enzyme 21.38 nM (dimer), n ≥ 3.

B1: G21A (protein)
chain: MITVDITVNDEGKVTDVIMDAHADHGEYGHDIVCAGASAVLFGSVNAIIGLTSERPDINYDDNGGHFHIRSVDTNNDEAQLILQTMLVSLQTIEEEYNENIRLNYK
modifications: left off: His6, N-terminal, cleaved | SUMO, N-terminal, cleaved
As for B1, the “measureable activity of mutant enzyme” value was “none”.

B2: S38A (protein)
chain: MITVDITVNDEGKVTDVIMDGHADHGEYGHDIVCAGAAAVLFGSVNAIIGLTSERPDINYDDNGGHFHIRSVDTNNDEAQLILQTMLVSLQTIEEEYNENIRLNYK
modifications: left off: His6, N-terminal, cleaved | SUMO, N-terminal, cleaved
Regarding B2, the “measureable activity of mutant enzyme” value is on record as “none”. Besides, the “activity relative to the wild-type enzyme” value (enzyme 213.8 nM) came to 2.1 ± 0.2%.

B3: H22A (protein)
chain: MITVDITVNDEGKVTDVIMDGAADHGEYGHDIVCAGASAVLFGSVNAIIGLTSERPDINYDDNGGHFHIRSVDTNNDEAQLILQTMLVSLQTIEEEYNENIRLNYK
modifications: left off: His6, N-terminal, cleaved | SUMO, N-terminal, cleaved
B3: the “measureable activity of mutant enzyme” value is given as “none”.

B4: D31A (protein)
chain: MITVDITVNDEGKVTDVIMDGHADHGEYGHAIVCAGASAVLFGSVNAIIGLTSERPDINYDDNGGHFHIRSVDTNNDEAQLILQTMLVSLQTIEEEYNENIRLNYK
modifications: left off: His6, N-terminal, cleaved | SUMO, N-terminal, cleaved
As for B4, the “measureable activity of mutant enzyme” value is on record as “none”.
